Test results: the supplement of paper PMC10065799, “High-throughput profiling of sequence recognition by tyrosine kinases and SH2 domains using bacterial peptide display” (eLife, 2023)

Assays:
FGFR1 = FGFR1 (UniProt P11362); experiment: phosphorylation enrichment, bacterial display (enrichment ratio); higher = better substrate or ligand; peptides without Tyr show the background
c-Abl (mouse) = experiment: as above
EPHB1 = EPHB1 (UniProt P54762); experiment: as above
Jak2 = Jak2 (UniProt O60674); experiment: as above
Jak2, sequence (O60674 whole entry, looked up): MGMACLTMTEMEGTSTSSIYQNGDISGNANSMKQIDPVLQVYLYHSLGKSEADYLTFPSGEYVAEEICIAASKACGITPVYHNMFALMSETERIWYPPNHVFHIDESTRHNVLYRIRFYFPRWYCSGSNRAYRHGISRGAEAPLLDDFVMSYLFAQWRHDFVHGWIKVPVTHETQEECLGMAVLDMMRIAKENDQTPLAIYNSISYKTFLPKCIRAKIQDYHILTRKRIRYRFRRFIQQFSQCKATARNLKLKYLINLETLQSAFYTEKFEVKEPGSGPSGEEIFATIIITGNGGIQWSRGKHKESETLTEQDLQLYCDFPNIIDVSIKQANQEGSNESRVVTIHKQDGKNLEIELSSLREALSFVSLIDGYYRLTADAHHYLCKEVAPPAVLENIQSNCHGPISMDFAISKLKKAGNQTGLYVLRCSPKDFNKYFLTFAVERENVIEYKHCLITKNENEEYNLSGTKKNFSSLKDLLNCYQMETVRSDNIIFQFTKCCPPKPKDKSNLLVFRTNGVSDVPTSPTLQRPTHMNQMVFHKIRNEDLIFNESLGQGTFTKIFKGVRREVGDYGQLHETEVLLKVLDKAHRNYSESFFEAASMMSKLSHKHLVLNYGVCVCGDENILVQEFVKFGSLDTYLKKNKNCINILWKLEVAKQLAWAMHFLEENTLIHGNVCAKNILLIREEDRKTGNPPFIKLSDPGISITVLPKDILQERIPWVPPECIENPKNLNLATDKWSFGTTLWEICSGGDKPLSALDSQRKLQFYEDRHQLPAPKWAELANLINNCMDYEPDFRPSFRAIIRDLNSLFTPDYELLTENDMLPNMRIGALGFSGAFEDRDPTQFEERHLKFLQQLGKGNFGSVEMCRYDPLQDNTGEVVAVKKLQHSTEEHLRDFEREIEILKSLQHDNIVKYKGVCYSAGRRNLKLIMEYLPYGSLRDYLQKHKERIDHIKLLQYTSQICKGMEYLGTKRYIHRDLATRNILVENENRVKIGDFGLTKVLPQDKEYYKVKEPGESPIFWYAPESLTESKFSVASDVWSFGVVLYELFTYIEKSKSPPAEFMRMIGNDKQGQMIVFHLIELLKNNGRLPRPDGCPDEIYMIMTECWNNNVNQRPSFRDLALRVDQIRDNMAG

c-Src = experiment: as above
Fes = Fes (UniProt P07332); experiment: as above
AncSZ = experiment: as above
Hck = Hck (UniProt P08631); experiment: as above
Hck, sequence (P08631 whole entry, looked up): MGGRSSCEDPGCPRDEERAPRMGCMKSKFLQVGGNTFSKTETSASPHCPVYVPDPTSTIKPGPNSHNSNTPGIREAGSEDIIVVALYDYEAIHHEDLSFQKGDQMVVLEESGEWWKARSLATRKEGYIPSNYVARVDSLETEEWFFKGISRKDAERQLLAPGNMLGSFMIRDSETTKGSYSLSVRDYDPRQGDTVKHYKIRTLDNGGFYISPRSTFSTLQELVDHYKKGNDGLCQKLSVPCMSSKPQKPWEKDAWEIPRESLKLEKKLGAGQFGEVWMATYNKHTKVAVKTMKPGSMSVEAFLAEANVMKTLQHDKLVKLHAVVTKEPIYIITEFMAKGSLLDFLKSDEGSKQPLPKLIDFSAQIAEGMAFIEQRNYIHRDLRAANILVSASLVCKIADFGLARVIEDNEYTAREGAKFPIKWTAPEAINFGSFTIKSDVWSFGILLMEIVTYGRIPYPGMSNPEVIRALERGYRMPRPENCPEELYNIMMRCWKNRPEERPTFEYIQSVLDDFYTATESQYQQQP

Fer (mouse) = experiment: as above
MERTK = MERTK (UniProt Q12866); experiment: as above
MERTK, sequence (Q12866 whole entry, looked up): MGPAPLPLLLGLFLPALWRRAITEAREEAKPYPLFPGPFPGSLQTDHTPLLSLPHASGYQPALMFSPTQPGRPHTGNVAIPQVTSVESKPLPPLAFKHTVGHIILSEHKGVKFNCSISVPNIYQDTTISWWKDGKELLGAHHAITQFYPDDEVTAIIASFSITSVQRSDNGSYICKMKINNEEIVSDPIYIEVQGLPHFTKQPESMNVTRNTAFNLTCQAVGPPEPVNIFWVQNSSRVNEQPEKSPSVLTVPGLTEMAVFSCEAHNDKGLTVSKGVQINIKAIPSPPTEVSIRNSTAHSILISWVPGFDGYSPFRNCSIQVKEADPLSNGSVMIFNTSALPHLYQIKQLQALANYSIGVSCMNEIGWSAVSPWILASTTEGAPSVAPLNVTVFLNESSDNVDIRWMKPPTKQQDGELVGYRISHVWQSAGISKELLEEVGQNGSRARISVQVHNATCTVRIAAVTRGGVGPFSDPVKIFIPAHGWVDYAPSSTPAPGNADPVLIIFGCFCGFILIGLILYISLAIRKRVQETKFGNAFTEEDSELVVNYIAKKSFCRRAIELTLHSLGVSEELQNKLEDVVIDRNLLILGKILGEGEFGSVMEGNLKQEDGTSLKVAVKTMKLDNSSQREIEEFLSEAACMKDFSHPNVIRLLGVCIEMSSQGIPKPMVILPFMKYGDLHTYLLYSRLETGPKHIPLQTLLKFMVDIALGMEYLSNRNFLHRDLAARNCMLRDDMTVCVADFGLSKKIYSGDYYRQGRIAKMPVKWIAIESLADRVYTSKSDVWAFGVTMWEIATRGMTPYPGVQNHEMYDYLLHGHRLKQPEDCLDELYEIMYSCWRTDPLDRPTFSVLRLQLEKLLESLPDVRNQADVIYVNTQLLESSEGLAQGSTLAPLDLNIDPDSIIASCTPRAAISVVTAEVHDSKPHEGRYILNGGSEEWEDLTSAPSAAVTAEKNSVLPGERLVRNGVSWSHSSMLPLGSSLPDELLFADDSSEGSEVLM

FGFR3 = FGFR3 (UniProt P22607); experiment: as above
EPHB2 = EPHB2 (UniProt P29323); experiment: as above
EPHB2, sequence (P29323 whole entry, looked up): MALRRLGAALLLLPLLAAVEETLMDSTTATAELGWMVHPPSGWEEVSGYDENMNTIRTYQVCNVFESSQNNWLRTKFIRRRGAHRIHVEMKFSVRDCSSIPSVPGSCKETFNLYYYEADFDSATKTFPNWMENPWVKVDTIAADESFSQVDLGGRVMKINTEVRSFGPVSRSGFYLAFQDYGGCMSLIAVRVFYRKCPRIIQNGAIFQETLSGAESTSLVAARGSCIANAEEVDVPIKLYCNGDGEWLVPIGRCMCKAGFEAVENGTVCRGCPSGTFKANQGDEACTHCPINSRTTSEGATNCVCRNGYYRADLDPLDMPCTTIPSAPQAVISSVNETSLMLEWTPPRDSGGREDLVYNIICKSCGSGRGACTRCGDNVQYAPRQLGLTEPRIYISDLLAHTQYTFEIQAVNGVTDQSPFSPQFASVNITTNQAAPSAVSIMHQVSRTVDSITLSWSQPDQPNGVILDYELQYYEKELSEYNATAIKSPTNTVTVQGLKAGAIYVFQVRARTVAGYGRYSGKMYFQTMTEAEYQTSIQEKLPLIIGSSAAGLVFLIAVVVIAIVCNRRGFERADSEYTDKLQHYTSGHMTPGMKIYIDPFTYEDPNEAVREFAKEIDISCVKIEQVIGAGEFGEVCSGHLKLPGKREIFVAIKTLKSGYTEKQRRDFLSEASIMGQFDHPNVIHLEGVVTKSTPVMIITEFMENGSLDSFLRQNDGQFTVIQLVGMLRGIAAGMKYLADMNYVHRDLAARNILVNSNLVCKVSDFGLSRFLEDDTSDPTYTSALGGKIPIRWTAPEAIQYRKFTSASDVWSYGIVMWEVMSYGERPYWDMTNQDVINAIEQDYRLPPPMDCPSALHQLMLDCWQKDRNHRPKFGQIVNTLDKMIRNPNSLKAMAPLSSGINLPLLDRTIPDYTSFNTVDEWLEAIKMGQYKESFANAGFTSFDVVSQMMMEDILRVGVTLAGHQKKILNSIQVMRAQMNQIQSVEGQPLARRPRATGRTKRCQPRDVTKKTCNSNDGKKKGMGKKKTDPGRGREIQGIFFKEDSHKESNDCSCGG

Fyn = Fyn (UniProt P06241); experiment: as above
Grb2 SH2 = Grb2 SH2 (UniProt P62993); experiment: SH2 binding enrichment of the phosphorylated peptide, bacterial display (enrichment ratio); higher = better substrate or ligand; peptides without Tyr show the background
Grb2 SH2, sequence (P62993 whole entry, looked up): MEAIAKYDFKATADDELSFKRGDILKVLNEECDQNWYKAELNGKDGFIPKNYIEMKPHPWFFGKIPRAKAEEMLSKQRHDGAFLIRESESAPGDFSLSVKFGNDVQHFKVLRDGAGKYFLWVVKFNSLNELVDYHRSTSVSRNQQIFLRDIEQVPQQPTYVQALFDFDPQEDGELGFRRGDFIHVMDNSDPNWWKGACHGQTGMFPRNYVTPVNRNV

SHP2-C SH2 = experiment: as above
c-Src SH2 = experiment: as above
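For SH2 binding enrichment of the phosphorylated peptide, bacterial display in this document: peptide library displayed on the E. coli surface as eCPX fusions, selected cells deep-sequenced, score is each peptide's frequency after selection divided by its frequency in the input.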
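For phosphorylation enrichment, bacterial display in this document: 11-residue human phosphosite peptides and single-mutation variants displayed on the E. coli surface, counted by deep sequencing, each peptide's frequency after selection divided by its frequency in the unselected input library; frequency after pTyr selection over input frequency; kinase dosed for 20-30% of maximal phosphorylation in three min.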

EPHB1, sequence (P54762 whole entry, looked up): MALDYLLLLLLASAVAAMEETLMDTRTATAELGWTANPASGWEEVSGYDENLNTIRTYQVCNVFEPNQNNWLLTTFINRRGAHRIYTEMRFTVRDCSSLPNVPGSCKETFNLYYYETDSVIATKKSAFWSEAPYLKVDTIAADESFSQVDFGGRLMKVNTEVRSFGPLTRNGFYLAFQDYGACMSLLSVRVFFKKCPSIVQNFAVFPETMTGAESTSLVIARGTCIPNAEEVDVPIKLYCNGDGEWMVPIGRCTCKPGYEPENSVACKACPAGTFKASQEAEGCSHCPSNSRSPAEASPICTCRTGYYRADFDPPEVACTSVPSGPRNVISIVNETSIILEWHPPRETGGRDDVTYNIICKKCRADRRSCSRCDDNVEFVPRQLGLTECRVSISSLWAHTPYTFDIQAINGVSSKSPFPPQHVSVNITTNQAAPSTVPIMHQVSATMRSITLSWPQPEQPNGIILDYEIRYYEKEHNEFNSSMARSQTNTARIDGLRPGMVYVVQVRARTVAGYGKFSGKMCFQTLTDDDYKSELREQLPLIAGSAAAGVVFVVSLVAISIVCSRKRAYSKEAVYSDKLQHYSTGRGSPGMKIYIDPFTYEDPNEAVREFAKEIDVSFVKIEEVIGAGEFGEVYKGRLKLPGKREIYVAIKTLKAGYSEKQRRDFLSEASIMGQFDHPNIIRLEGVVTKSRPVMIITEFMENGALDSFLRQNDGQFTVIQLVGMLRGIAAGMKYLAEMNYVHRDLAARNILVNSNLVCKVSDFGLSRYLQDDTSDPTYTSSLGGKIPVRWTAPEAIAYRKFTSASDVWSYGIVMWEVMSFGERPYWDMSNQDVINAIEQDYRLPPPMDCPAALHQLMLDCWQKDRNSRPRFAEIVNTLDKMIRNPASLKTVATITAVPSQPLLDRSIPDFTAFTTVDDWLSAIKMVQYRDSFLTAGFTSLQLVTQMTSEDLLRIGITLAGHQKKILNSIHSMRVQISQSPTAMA

Row | Sequence | phosphorylation enrichment (FGFR1) | phosphorylation enrichment (c-Abl (mouse)) | phosphorylation enrichment (EPHB1) | phosphorylation enrichment (Jak2) | phosphorylation enrichment (c-Src) | phosphorylation enrichment (Fes) | phosphorylation enrichment (AncSZ) | phosphorylation enrichment (Hck) | phosphorylation enrichment (Fer (mouse)) | phosphorylation enrichment (MERTK) | phosphorylation enrichment (FGFR3) | phosphorylation enrichment (EPHB2) | phosphorylation enrichment (Fyn) | SH2 binding enrichment (Grb2 SH2) | SH2 binding enrichment (SHP2-C SH2) | SH2 binding enrichment (c-Src SH2)
1 | FMGVEYSSCDT [EPHA3_Y937_T933M] | 0.601 | 0.827 | 0.683 | 1.2 | 0.521 | 1.31 | 1.32 | 0.61 | 0.64 | 0.479 | 0.838 | 0.756 | 0.441 | 0.598 | 0.588 | 1.43
2 | EQLRAYLEGLC [HLA-C_Y183_T187L] | 0.512 | 1.13 | 0.653 | 1.45 | 0.618 | 1.58 | 1.34 | 0.73 | 0.607 | 0.615 | 0.843 | 0.673 | 0.482 | 0.704 | 0.66 | 0.449
3 | LSVMSYDLGMF [GBA3_Y174] | 0.789 | 1.07 | 0.876 | 1.44 | 0.75 | 1.59 | 1.31 | 0.947 | 0.602 | 0.62 | 1.13 | 0.707 | 0.759 | 0.624 | 0.887 | 0.603
4 | NPSYNYEIVNQ [DYNC1H1_Y3379_R3384Q] | 0.583 | 0.55 | 10.5 | 0.754 | 0.506 | 0.818 | 0.885 | 0.497 | 2.7 | 0.694 | 0.701 | 4.17 | 0.463 | 0.736 | 0.348 | 0.642
5 | EERKTYVNTML [TEK_Y1102_T1106M] | 0.428 | 0.55 | 0.385 | 0.637 | 0.362 | 0.803 | 0.71 | 0.378 | 0.42 | 0.354 | 0.506 | 0.442 | 0.44 | 12.9 | 0.606 | 0.661
6 | GGTTLYPGIAD [ACTC1_Y308_M307L] | 0.537 | 0.484 | 0.446 | 0.553 | 0.363 | 0.765 | 0.587 | 0.442 | 0.431 | 0.381 | 0.548 | 0.531 | 0.458 | 0.762 | 0.648 | 0.453
7 | LLNAIYLSAKR [SERPING1_Y294_W299R] | 0.617 | 1.61 | 0.659 | 1.65 | 1.09 | 1.43 | 1.58 | 1.36 | 0.85 | 0.947 | 0.963 | 0.846 | 0.86 | 1.64 | 1.59 | 1.11
8 | SMEGLYSSAQD [CLIC5_Y111_T114A] | 0.522 | 1.05 | 1.62 | 1.3 | 3.2 | 1.55 | 1.51 | 3.19 | 4.7 | 1.52 | 0.908 | 1.8 | 2.67 | 0.582 | 0.595 | 0.733
9 | QAYSWYQHQRA [NDST1_Y714_R709Q] | 1.22 | 0.8 | 0.701 | 1.1 | 0.642 | 1.01 | 1.13 | 0.782 | 6.78 | 3.85 | 0.883 | 0.901 | 0.516 | 1.23 | 1.17 | 1.08
10 | HQNGTYGLHQD [SGSH_Y89_M88T] | 0.71 | 0.555 | 0.418 | 0.459 | 0.599 | 0.764 | 0.615 | 0.753 | 0.431 | 0.414 | 0.727 | 0.541 | 0.61 | 1.04 | 0.666 | 0.401
11 | AKKIKYFEGVS [PRKDC_Y682] | 0.295 | 0.328 | 0.324 | 0.427 | 0.387 | 0.547 | 0.429 | 0.447 | 0.42 | 0.383 | 0.332 | 0.44 | 0.321 | 0.79 | 0.83 | 0.479
12 | QQLVAYFSKHT [SRC_Y232_A237T_YF] | 0.562 | 0.646 | 0.676 | 1.75 | 0.513 | 1.09 | 0.898 | 0.699 | 0.595 | 0.382 | 0.942 | 0.724 | 0.629 | 1.01 | 1.08 | 0.808
13 | LHRHAYPEQQQ [DPPA2_Y127_R131Q] | 1.07 | 0.716 | 0.837 | 0.645 | 0.559 | 0.901 | 0.726 | 0.474 | 0.743 | 0.401 | 0.828 | 0.811 | 0.824 | 1.02 | 0.839 | 0.906
14 | NREGVYTDFAP [TGFBI_Y537_V539D] | 0.645 | 0.868 | 0.578 | 0.823 | 7.49 | 1.13 | 0.843 | 2.95 | 2.51 | 1.71 | 0.608 | 0.624 | 9.31 | 0.976 | 0.927 | 0.661
15 | VLALWYYYLTH [ZDHHC23_Y127] | 6.87 | 0.964 | 0.81 | 2.57 | 1.24 | 1.64 | 1.45 | 0.783 | 0.724 | 2.99 | 5.65 | 0.74 | 0.646 | 2.15 | 1.62 | 1.5
16 | CTTIHYNYMHN [TP53_Y234_C238H] | 0.479 | 0.446 | 0.528 | 0.531 | 0.349 | 0.767 | 0.692 | 0.407 | 0.488 | 0.433 | 0.521 | 0.536 | 0.447 | 0.995 | 0.857 | 1.86
17 | YADPYYDYEIE [ZC3H18_Y372] | 9.62 | 0.853 | 2.05 | 1.24 | 3.01 | 1.31 | 1.95 | 1.06 | 1.58 | 2.18 | 7.39 | 1.94 | 2.52 | 0.787 | 0.545 | 2.04

Row | Sequence | phosphorylation enrichment (FGFR1) | phosphorylation enrichment (c-Abl (mouse)) | phosphorylation enrichment (EPHB1) | phosphorylation enrichment (Jak2) | phosphorylation enrichment (c-Src) | phosphorylation enrichment (Fes) | phosphorylation enrichment (AncSZ) | phosphorylation enrichment (Hck) | phosphorylation enrichment (Fer (mouse)) | phosphorylation enrichment (MERTK) | phosphorylation enrichment (FGFR3) | phosphorylation enrichment (EPHB2) | phosphorylation enrichment (Fyn) | SH2 binding enrichment (Grb2 SH2) | SH2 binding enrichment (SHP2-C SH2) | SH2 binding enrichment (c-Src SH2)
18 | SDVCMYRKNTF [SYNE2_Y570_I574T_YF] | 0.497 | 0.636 | 0.551 | 0.726 | 0.4 | 0.904 | 0.711 | 0.456 | 0.382 | 0.4 | 0.571 | 0.534 | 0.395 | 0.787 | 0.732 | 0.507
19 | SQSAKYDMAED [TTC21B_Y1213_I1208S] | 0.634 | 0.661 | 0.461 | 0.858 | 0.566 | 0.894 | 0.9 | 0.582 | 0.509 | 0.441 | 0.56 | 0.635 | 0.556 | 0.839 | 0.545 | 1.22
20 | TFWKKYCTFWK [CCDC70_Y125_R126C] | 0.438 | 0.752 | 0.381 | 0.844 | 0.395 | 0.794 | 0.966 | 0.38 | 0.364 | 0.402 | 0.619 | 0.425 | 0.381 | 1.1 | 0.594 | 0.517
21 | YRKNIYNVKST [SYNE2_Y575] | 0.384 | 0.405 | 0.337 | 0.37 | 0.474 | 0.47 | 0.488 | 0.324 | 0.425 | 0.354 | 0.48 | 0.423 | 0.458 | 0.753 | 0.581 | 0.422
22 | PSQRCYVYYYS [PTEN_Y174_R173C] | 1.41 | 1.77 | 0.931 | 2.59 | 3.16 | 2.28 | 2.35 | 1.03 | 0.807 | 2.02 | 1.8 | 0.556 | 1.09 | 0.825 | 0.645 | 0.286
23 | KPNMNYDKLSQ [FLI1_Y332_R337Q] | 0.468 | 0.431 | 0.418 | 0.612 | 0.478 | 0.578 | 0.495 | 0.431 | 0.462 | 0.394 | 0.447 | 0.446 | 0.422 | 0.882 | 0.659 | 1.15
24 | HSVVQYVGGVM [FGGY_Y136_L134V] | 0.447 | 0.61 | 0.517 | 0.726 | 0.491 | 0.911 | 0.989 | 0.609 | 0.643 | 0.603 | 0.629 | 0.572 | 0.465 | 0.885 | 2.89 | 0.465
25 | SQPASYQRRFL [PPIG_Y320_L324F] | 0.472 | 0.599 | 0.38 | 0.631 | 0.466 | 0.667 | 0.768 | 0.492 | 0.364 | 0.505 | 0.439 | 0.579 | 0.425 | 0.711 | 0.61 | 0.407
26 | ESMLRYDVFGG [STOX1_Y607_E608D_YF] | 0.508 | 0.582 | 0.445 | 0.91 | 1.1 | 0.846 | 0.933 | 0.619 | 0.536 | 2.37 | 0.685 | 0.631 | 0.636 | 1.1 | 0.627 | 1.56
27 | EPFKVYRIVPE [IRF8_Y110_YF] | 0.468 | 0.43 | 0.428 | 0.526 | 0.588 | 0.698 | 0.572 | 0.4 | 0.424 | 0.453 | 0.485 | 0.454 | 0.462 | 0.774 | 0.511 | 0.506
28 | PSDSGYSFETI [MAP1B_Y1921_YF] | 0.633 | 0.763 | 0.639 | 1.25 | 0.405 | 1.25 | 1.05 | 0.635 | 0.608 | 0.641 | 1.05 | 1.1 | 0.703 | 0.971 | 0.874 | 2.13
29 | FLQTDDTSQVS [FRMPD1_Y846_Y846D] | 0.445 | 1.07 | 0.632 | 0.99 | 0.476 | 1.12 | 1.05 | 0.587 | 0.49 | 0.622 | 0.645 | 0.648 | 0.481 | 0.798 | 0.66 | 0.457
30 | LKLWDYSRGRC [WDR5B_Y239] | 0.597 | 0.643 | 0.73 | 0.724 | 0.39 | 1.19 | 0.966 | 0.451 | 0.796 | 0.736 | 0.694 | 1.01 | 0.66 | 0.99 | 0.501 | 0.74
31 | ERPGVYTNVVE [F11_Y608] | 0.438 | 0.513 | 0.417 | 0.519 | 0.442 | 0.62 | 0.66 | 0.463 | 0.413 | 0.383 | 0.538 | 0.423 | 0.481 | 4.93 | 0.979 | 6.19
32 | ADCRYYAFPQM [GAMT_Y223] | 11 | 7.97 | 9.71 | 5.86 | 3.76 | 1.33 | 4.46 | 3.1 | 8.45 | 9.72 | 8.74 | 10.8 | 2.75 | 0.862 | 0.656 | 1.84
33 | TTKVSYRASQP [MKI67_Y1737] | 0.355 | 0.638 | 0.3 | 0.475 | 0.343 | 0.489 | 0.602 | 0.326 | 0.432 | 0.352 | 0.334 | 0.337 | 0.311 | 0.962 | 0.83 | 0.533
